Test in all cases: purified protein
Common to all, as to type: biochemical, Flavobacterium johnsoniae

Substrate in data set [1]: COC(=O)/C=C/c1ccc(O)c(O)c1
The settings on record: pH 6.5, 25 °C, 100 mM buffer.

Substrate in data set [2]: COC(=O)/C=C/c1ccc(O)c(OC)c1
The settings on record: pH 6.5, 25 °C, 100 mM buffer.

Substrate in data set [3]: COC(=O)/C=C/c1ccc(O)cc1
The settings on record: pH 6.5, 25 °C, 100 mM buffer.

Substrate in data set [4]: CC(=O)Oc1ccc2c(C)cc(=O)oc2c1
As to conditions: 100 mM buffer.

Substrate in data set [5]: COC(=O)/C=C/c1cc(OC)c(O)c(OC)c1
As to conditions: pH 6.5, 25 °C, 100 mM buffer.

The values below come from paper PMC7110780, “Multimodular fused acetyl–feruloyl esterases from soil and gut Bacteroidetes improve xylanase depolymerization of recalcitrant biomass” (Biotechnology for Biofuels, 2020).

B1: FjCE1 (Flavobacterium johnsoniae UW101) (protein)
chain: FDEVNANAPQGKVEIVSYESKTVGSTRKATIYTPPGFNKNKKYPVLYLLHGIGGDEKEWLNGGQPNVILDNLYADGKLEPMIVVMPNGRAMKDDRAGGDIMAADKVKAFSVFEKDLLNDLIPFIEKKYPVLKDREHRAIAGLSMGGGQSLNFGLGNLDQFAWVGAFSAAPNTKIGTELLAKPEEAKKKLKLLWISCGDKDWLIENSTRTHDYLAKNNVPHIYYIEPGVHDFKVWKNGLYMFSQFLFKEVDPLVFQKYSISAYTIEK
notes: domain borders not in main text
Regarding B1, the Michaelis-Menten constant (Km) in the data set “purified protein [1]” is 340 ± 100 µM; in “purified protein [2]” it was 110 ± 20 µM; in “purified protein [3]”, 390 ± 120 µM; in “purified protein [4]” (pH 6.5, 25 °C) it was 70 ± 10 µM; in “purified protein [5]”, 140 ± 20 µM. Besides, the turnover number (kcat) in “purified protein [1]” is 0.83 ± 0.14 s⁻¹; in the data set “purified protein [2]”, 2.5 ± 0.2 s⁻¹; in the data set “purified protein [3]”, 1.5 ± 0.3 s⁻¹; in the data set “purified protein [4]” (pH 6.5, 25 °C), 0.61 ± 0.03 s⁻¹; in the data set “purified protein [5]”, 1.8 ± 0.1 s⁻¹. The specificity constant (kcat/Km) was found to be 2700 ± 1000 M⁻¹ s⁻¹ in “purified protein [1]”; 23100 ± 4500 M⁻¹ s⁻¹ in the data set “purified protein [2]”; 3900 ± 1400 M⁻¹ s⁻¹ in “purified protein [3]”; 8700 ± 1700 M⁻¹ s⁻¹ in “purified protein [4]” (pH 6.5, 25 °C); 13000 ± 2200 M⁻¹ s⁻¹ in the data set “purified protein [5]”.

B2: FjCE6 (Flavobacterium johnsoniae UW101) (protein)
chain: SQDPNFHVYLSFGQSNMEGFAKIEPQDKTGVNERFQVLSAVDCPEMGREKGKWYTAVPPLCRCTTGLTPMDYFGRTMISNLPQNIKVGVVNVAVGGCKIELFDKNNFESYVANSPDWLKNIVKQYDGNPYGRLVEMAKIAQKKGVIKGILLHQGESNTGDTLWPQKVKIVYDNLIKDLNLDPKKVPLLSGETVNEDQNGKCGSMNKIIAKLPQVLPNSYIISSKGCKADADFLHFSPEGYRELGKRYADKMLSLSGYMLFNGKE
notes: as for B1
Consider B2, for which, in the data set “purified protein [4]” (pH 8, 25 °C), the Km turned out to be 150 ± 20 µM, the kcat was 6.7 ± 0.2 s⁻¹ and the kcat/Km turned out to be 43400 ± 4400 M⁻¹ s⁻¹.

One may read the Km as the substrate concentration at which the rate is half of its maximum. One may read the kcat as the maximal rate divided by the concentration of active sites. What is called kcat/Km is the second-order rate constant that governs catalysis at low substrate concentration.
